Tests used:
[1] = target: T1, alphaVBeta5 (αVβ5) integrin heterodimer (UniProt P06756 31-992; P18084 24-719); test: ELISA
T1 construct: Heterodimer used in ELISA; source and construct not described; also called aVB5

[2] = target: T1, alphaVBeta5 (αVβ5) integrin heterodimer; test: ELISA, average of 5 experiments normalized to VTN-FL
[3] = target: T1, alphaVBeta5 (αVβ5) integrin heterodimer; test: ELISA; printed as ED50 (median effective dose)

T1 sequence (P06756 31-992, chain 1 of 2): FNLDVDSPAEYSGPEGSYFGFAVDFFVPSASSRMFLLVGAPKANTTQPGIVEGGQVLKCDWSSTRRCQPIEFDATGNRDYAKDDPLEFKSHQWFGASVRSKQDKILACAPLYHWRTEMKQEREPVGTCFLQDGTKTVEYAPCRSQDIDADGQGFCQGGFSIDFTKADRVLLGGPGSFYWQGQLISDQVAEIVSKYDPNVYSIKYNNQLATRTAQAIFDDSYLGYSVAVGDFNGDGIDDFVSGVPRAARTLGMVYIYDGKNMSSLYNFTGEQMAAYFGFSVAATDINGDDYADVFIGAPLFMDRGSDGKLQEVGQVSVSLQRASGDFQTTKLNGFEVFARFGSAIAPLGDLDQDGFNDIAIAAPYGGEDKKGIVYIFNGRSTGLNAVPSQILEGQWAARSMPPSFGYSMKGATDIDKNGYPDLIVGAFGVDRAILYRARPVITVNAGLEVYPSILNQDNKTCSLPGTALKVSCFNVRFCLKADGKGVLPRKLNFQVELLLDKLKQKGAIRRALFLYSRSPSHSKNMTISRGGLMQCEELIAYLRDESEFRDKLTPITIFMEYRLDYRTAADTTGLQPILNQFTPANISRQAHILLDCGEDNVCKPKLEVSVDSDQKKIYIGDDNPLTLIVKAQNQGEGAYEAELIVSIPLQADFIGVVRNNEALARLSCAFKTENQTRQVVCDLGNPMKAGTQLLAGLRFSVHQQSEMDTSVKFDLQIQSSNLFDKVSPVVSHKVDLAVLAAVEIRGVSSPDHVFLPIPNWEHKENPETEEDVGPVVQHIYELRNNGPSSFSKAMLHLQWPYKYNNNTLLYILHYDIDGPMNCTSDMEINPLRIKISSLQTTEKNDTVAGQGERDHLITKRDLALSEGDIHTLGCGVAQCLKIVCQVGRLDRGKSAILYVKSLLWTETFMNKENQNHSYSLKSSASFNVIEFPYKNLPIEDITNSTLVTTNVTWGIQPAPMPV
T1 sequence (P18084 24-719, chain 2 of 2): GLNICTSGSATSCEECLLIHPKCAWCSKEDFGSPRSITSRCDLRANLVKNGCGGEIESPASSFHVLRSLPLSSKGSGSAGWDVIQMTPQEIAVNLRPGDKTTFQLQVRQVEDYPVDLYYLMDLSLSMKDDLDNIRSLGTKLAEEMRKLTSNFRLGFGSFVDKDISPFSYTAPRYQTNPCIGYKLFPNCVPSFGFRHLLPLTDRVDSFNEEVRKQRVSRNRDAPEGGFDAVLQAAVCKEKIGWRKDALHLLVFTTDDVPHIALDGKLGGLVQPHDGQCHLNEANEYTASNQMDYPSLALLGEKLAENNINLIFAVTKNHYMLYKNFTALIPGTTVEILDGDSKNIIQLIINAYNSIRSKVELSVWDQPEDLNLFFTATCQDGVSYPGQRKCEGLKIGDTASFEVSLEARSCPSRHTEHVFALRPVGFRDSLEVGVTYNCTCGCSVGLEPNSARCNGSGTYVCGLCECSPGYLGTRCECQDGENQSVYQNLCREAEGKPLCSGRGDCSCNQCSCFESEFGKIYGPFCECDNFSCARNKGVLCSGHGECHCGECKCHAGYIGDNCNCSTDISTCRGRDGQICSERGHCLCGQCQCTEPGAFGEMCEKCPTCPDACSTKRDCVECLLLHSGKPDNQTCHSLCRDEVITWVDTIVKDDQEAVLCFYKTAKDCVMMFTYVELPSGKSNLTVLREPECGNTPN

Row | fold increase in binding affinity [1] | fold increase in ED50 [2] | EC50 [3] | Binder
1 | ~2 fold | – | – | VTN62-292,D80Y (ligand, also called D80Y mutant) MVTRGDVFTMPEDEYTVYDYGEEKNNATVHEQVGGPSLTSDLQAQSKGNPEQTPVLKPEEEAPAPEVGASKPEGIDSRPETLHPGRPQPPAEEELCSGKPFDAFTDLKNGSLFAFRGQYCYELDEKAVRPGYPKLIRDVWGIEGPIDAAFTRINCQGKTYLFKGSQYWRFEDGVLDPDYPRNISDGFDGIPDNVDAALALPAHSYSGRERVYFFKGKQYWEYQFQHQPSQEEHHHHHH
2 | – | > 7 fold | 0.523 µg/mL | VTN62-292 T63G, V67N, F68P (ligand, also called VN-3) VGRGDNPTMPEDEYTVYDDGEEKNNATVHEQVGGPSLTSDLQAQSKGNPEQTPVLKPEEEAPAPEVGASKPEGIDSRPETLHPGRPQPPAEEELCSGKPFDAFTDLKNGSLFAFRGQYCYELDEKAVRPGYPKLIRDVWGIEGPIDAAFTRINCQGKTYLFKGSQYWRFEDGVLDPDYPRNISDGFDGIPDNVDAALALPAHSYSGRERVYFFKGKQYWEYQFQHQPSQEEHHHHHH

From US20240368253A1 (BIO TECHNE, published 2024)
